According to publication PMC7534208:

Molecular target: transportin 1 (TNPO1) (human (endogenous in HeLa)) (UniProt Q92973)
Assay: proximity ligation

Chain of UniProt Q92973 (Q92973 whole entry): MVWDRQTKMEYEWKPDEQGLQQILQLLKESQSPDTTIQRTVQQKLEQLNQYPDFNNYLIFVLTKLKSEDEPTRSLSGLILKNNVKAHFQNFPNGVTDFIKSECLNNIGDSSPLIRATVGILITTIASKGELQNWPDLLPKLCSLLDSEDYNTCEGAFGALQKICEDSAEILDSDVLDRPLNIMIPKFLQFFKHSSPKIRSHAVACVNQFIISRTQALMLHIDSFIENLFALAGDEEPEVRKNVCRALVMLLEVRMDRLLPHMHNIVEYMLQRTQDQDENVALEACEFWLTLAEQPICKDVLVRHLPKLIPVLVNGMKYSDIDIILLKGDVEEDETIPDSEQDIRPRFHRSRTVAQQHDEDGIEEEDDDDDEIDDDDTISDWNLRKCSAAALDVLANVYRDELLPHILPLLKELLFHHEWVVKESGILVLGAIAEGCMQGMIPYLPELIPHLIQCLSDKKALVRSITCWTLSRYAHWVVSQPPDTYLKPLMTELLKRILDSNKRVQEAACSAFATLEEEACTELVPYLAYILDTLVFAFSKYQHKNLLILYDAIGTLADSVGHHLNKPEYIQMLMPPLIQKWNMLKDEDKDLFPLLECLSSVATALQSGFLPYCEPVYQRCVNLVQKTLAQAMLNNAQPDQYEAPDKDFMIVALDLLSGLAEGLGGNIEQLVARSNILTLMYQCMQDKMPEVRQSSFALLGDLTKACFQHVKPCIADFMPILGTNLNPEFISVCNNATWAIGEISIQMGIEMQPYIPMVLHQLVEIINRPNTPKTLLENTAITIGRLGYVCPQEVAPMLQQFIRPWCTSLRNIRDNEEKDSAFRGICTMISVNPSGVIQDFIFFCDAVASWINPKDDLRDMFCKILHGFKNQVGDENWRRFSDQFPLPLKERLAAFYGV

Question: Which PLA puncta per cell (puncta per cell) does the source give for “HIV-1 Rev (regulator of expression of virion proteins), HA-tagged (from UniProt P04618 1-116) (natural protein)” here?
Answer: 26
